Consider one substance from paper PMC5358978, “Nuclear export receptor CRM1 recognizes diverse conformations in nuclear export signals” (eLife, 2017).

This assay deals with human CRM1 (HsCRM1), wild type (human) (UniProt O14980). Kind of assay: differential bleaching; competition titration of MBP-NES to FITC-PKI NES and CRM1 with excess RanGTP; triplicate; fitted with a set of direct titrations.
Sequence of human CRM1 (HsCRM1), wild type (human) (O14980 whole entry): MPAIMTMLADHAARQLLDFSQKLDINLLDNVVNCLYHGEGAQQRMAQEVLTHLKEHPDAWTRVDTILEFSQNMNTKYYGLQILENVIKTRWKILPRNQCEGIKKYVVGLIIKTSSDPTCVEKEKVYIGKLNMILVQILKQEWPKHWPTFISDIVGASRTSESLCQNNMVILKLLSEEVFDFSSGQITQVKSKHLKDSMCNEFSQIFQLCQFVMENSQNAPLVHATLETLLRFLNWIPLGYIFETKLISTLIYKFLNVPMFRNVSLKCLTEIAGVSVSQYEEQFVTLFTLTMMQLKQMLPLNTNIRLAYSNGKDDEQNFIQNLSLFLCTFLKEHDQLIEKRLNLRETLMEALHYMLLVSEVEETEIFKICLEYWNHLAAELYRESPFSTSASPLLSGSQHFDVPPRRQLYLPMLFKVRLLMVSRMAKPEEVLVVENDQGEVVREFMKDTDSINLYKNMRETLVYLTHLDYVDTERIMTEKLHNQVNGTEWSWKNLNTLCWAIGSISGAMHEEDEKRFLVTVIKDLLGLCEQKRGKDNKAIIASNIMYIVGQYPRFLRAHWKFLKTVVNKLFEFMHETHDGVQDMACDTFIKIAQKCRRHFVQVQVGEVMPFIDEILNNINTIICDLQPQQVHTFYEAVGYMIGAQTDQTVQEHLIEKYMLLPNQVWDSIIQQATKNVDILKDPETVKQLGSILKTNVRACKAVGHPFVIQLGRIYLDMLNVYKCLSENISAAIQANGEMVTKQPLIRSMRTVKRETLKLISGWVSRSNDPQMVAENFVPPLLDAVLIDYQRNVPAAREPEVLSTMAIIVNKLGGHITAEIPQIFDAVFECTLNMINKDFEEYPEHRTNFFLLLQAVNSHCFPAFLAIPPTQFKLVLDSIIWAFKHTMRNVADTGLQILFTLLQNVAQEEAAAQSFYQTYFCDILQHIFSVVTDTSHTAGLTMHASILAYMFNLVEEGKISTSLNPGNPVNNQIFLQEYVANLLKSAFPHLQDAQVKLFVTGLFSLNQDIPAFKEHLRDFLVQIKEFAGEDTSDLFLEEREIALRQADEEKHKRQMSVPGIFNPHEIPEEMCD

Regarding MBP-mDia2 NES(Φ0A) mutant (peptide), the Kd (commonly the constant that tells how readily two partners part at equilibrium) came to 9.1 µM.
